US20110165081A1

Columns and labels:
[1] = target: prostate specific membrane antigen (PSMA), full-length (human) (UniProt Q04609); assay: radiolabelled mAb bound to PSMA-expressing cells, average
[2] = target: prostate specific membrane antigen (PSMA), full-length (human) (UniProt Q04609); assay: radiolabelled mAb bound to PSMA-3T3 cells
[3] = target: prostate specific membrane antigen (PSMA), full-length (human) (UniProt Q04609); assay: radiolabelled mAb bound to PSMA-3T3 cells (bracket: 3T3 control)
[4] = target: prostate specific membrane antigen (PSMA), full-length (human) (UniProt Q04609); assay: cell-based or functional assay

Sequence of prostate specific membrane antigen (PSMA), full-length (human) (Q04609 whole entry): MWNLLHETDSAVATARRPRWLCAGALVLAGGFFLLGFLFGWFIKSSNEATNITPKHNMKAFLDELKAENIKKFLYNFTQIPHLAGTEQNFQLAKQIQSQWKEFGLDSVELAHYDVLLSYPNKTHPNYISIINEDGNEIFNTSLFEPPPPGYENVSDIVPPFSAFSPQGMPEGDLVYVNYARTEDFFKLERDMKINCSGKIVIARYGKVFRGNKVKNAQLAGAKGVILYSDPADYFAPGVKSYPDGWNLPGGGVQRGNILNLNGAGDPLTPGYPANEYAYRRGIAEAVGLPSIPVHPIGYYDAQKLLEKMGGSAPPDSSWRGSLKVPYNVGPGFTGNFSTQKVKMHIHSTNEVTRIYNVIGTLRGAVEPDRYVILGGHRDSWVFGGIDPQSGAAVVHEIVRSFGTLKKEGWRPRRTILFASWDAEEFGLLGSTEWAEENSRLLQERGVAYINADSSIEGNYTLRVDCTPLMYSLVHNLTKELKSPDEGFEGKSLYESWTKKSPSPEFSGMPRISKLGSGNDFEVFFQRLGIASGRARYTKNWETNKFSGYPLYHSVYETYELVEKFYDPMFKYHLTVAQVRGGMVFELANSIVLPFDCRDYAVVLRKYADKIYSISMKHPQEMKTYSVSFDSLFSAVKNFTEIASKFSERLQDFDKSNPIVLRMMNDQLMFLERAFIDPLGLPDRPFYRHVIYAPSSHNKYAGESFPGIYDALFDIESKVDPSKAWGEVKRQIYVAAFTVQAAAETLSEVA

## ^111In radiolabeled CHX-A″-DTPA antibody mJ591
[1]
  Immunoreactivity (%), Average: 56.7%
[2]
  Immunoreactivity (%): 58.5%
[3]
  Immunoreactivity (%): 54.9%

## mAb J591 (ATCC #HB-12126) (antibody)
[4]
  LD50, immunotoxin cytotoxicity (Mab-Zap saporin secondary) on C4-2 cells: 88.2 pM
  LD50, immunotoxin cytotoxicity (Mab-Zap saporin secondary) on PSMA-3T3 cells: 89 pM
